Results on 1 molecule are retold here after US20190389961A1 (INNATE PHARMA, published 2019).

Test [1] has as its target T1, recombinant human CD39-L2 (NTPDase6, ENTPD6) (human, UniProt O75354 61-484, limits assumed).
T1 construct: Genbank NP_001238 is printed
T1 sequence: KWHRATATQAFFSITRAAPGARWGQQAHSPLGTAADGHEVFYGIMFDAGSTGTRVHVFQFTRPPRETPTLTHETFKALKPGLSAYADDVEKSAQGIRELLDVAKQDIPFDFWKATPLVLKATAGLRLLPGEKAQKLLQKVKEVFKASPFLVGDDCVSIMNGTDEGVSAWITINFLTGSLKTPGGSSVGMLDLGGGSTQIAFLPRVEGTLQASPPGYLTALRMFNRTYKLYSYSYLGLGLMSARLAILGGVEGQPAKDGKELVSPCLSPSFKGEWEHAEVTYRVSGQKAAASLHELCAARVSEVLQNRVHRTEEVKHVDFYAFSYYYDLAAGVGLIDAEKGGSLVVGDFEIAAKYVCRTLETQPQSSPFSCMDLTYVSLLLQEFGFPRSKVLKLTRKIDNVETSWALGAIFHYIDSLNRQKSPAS
The test can be described thus: ELISA on plate-coated recombinant huCD39 L2; the single curve has no legend on the sheet, I-394 by the legend paragraph 70. The method, then: (§1) Wells were washed in TBS Tween 20, and further saturated 2H at RT in TBS Blocking buffer. Dose range concentration of primary antibody was incubated in TBS blocking buffer for 2 h at RT. Wells were washed in TBS Tween 20. […] Optical density was measured on Enspire™ at OD=450.
For orientation: An ELISA detects its analyte on a solid surface through an enzyme-linked reagent.

The next test has as its target T2, human CD39 mutant 5 (human, UniProt P49961 1-510).
T2 construct: Expressed on Hek-293T cells; also called M5
T2 chain: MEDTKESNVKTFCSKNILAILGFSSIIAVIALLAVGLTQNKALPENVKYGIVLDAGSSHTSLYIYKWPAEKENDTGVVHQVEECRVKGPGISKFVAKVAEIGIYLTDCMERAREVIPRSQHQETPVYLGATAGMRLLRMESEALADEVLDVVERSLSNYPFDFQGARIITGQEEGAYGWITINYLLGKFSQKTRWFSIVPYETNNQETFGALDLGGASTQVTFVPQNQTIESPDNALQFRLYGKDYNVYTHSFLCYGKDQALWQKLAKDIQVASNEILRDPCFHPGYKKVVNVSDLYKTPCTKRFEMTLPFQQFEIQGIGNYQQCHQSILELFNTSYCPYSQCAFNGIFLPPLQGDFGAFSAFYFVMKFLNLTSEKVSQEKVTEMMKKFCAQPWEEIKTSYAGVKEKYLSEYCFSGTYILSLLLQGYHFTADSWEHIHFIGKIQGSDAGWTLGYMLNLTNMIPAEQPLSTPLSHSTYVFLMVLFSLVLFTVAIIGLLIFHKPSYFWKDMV
The test can be described thus: flow cytometry on Hek-293T cells expressing CD39 mutant 5 (panel M5); unstained (US) median 8,98; antibody concentration not shown. As for the experimental part: Mutants were transfected in Hek-293T cells, as shown in the table 1, using numbering of SEQ ID NO: 1. […] Mutant 19 includes substitutions at residues R138, M139 and E142.
In order to define the epitopes of the further anti-CD39 antibodies of Example 5, they were tested for loss of binding to the panel of CD39 mutants as described in Example 1 and Table 1. Mutants were transfected in Hek-293T cells, as shown in the table 1, using numbering of SEQ ID NO: 1.Dose-ranges of test antibodies (10-2.5-0.625-0.1563-0.0391-0.0098-0.0024-0.0006 μg/ml) are tested on the 20 generated mutants by flow cytometry.
In general terms: Flow cytometry measures light scatter and fluorescence of single cells or particles in a stream.

The target in test [2] is T3, recombinant human CD39-L4 (NTPDase5, ENTPD5) (human, UniProt O75356 25-428).
T3 construct: Genbank NP_001240 (precursor) is printed
T3 sequence: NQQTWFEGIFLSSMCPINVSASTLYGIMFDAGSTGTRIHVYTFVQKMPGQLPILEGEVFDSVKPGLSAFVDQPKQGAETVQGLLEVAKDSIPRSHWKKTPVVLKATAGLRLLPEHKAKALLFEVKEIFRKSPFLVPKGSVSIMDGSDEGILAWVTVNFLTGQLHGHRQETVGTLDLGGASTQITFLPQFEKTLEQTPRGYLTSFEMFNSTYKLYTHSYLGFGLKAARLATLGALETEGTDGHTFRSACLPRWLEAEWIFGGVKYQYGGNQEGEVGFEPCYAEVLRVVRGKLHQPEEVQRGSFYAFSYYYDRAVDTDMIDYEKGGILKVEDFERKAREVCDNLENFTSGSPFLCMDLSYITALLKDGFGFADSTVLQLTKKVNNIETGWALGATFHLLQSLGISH
The test can be described thus: ELISA on plate-coated recombinant huCD39 L4; the single curve has no legend on the sheet, I-394 by the legend paragraph 70. The method, then:
as §1

For test [3], the target named is T4, recombinant human CD39-L3 (NTPDase3, ENTPD3) (human, UniProt O75355 44-485, limits assumed).
T4 construct: Genbank NP_001239 is printed
T4 sequence: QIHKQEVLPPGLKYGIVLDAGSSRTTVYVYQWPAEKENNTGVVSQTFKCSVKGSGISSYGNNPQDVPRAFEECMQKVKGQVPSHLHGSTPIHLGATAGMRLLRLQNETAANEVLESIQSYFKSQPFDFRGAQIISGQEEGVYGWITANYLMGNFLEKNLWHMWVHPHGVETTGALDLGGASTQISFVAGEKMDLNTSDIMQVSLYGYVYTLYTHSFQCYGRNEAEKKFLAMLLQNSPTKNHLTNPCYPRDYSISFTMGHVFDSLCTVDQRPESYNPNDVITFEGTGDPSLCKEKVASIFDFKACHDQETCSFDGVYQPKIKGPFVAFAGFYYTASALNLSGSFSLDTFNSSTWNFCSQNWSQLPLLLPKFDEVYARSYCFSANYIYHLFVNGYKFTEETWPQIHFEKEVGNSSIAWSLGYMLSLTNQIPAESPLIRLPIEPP
The test can be described thus: ELISA on plate-coated recombinant huCD39 L3; the single curve has no legend on the sheet, I-394 by the legend paragraph 70. The method, then: as §1

B1: antibody I-394 (antibody, V domains shown)
VH: EVQLQQSGPELVKPGASVKMSCKASGYTFTDYNMHWVKQSHGRTLEWIGYIVPLNGGSTFNQKFKGRATLTVNTSSRTAYMELRSLTSEDSAAYYCARGGTRFAYWGQGTLVTVSA
VL: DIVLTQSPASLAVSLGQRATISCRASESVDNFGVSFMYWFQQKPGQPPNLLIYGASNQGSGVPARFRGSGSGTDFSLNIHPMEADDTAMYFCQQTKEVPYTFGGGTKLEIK
notes: Mouse variable regions; Produced in CHO with human IgG1 constant domains carrying L234A/L235E/G237A/A330S/P331S (Kabat EU numbering) and a human Ck constant domain
In the case of B1, the binding result in test [1], in test [2] and in test [3] was “no binding (tested: about 50 µg/ml)” in each case. In addition, in the test with human CD39 mutant 5, the “Median : Comp-Alexa Fluor 647-A” value worked out at 1470.
